The results in this text go back to the DeepSol protein solubility set.

A short description of the data set: soluble on expression in E. coli; label from the status in PepcDB or PDB records.
With “MSDMNNPADDNNGAMDDLWAEALSEQKSTSEKSAADAVFQQFGGGDVSGTLQDIDLIMDIPVKLTVELGRTRMTIKELLRLTQGSVVALDGLAGEPLDILINGYLIAQGEVVVVADKYGVRITDIITPSERMRRLSR”, the “soluble on expression in E. coli” value is recorded as “not soluble”. The entry for “MSDMSDLEDDQTGHCGSGEHSGPFDPKRHAREQHNALERRRRDNIKDMYTSLREVVPDANGERVQASRAVILKKAIESIEKGQSDSATLSVDVAEQESKNAKLREEIARLKAKKDPSSSQSIIQ” is “not soluble”; for “MSDNEIVAGIMRDHIINLLKEGKRIDDRGFEDYRPIEIEVGIIEKAEGSALVKLGSTQVLVGIKTTLGEPFPDTPNMGVMTTNVELVPLASPTFEPGPPDERAIELARVTDRGIRESRALNLEKMVIVPGKIVRVVFIDVHVLDHDGNLMDAIGIASIAALLNAKVPKVEYNEETGEVEILEEKEPLPVERIPIPVTFAKIGNILVVDPSLEEELVMDGRLTVTTDETGHISAVQKGEGGAFKLEEVMYAVETAFKKAEEIRKIVLEAIKKSGE” it is “soluble”.

“MSDNSTGTTKSRSNVDDVQAHYDLSDAFFALFQDPTRTYSCAYFERDDMTLHEAQVAKLDLTLGKLGLEPGMTLLDVGCGWGSVMKRAVERYDVNVVGLTLSKNQHAYCQQVLDKVDTNRSHRVLLSDWANFSEPVDRIVTIEAIEHFGFERYDDFFKFAYNAMPADGVMLLHSITGLHVKQVIERGIPLTMEMAKFIRFIVTDIFPGGRLPTIETIEEHVTKAGFTITDIQSLQPHFARTLDLWAEALQAHKDEAIEIQSAEVYERYMKYLTGCAKAFRMGYIDCNQFTLAK”: the “soluble on expression in E. coli” value is “soluble”. For “MSDPHQSQQLVTAGTALSEASAAAVLVHGRGATARSIVQMGAEFQQDGLALLAPQAARNTWYPNSFLSPVEQNEPGRSSGLQAIEDAVTKAAEAGIPTDHVLILGFSQGACLASEFVARNPQRYGGLVALSGGLIGESIDESEYEGDIEETPVFLGCSNVDPHIPEERVHVTASVFERLNGDVEERIYEGMGHGVNEDELAYVSSLTAGLVN”, the “soluble on expression in E. coli” value was “not soluble”. Take “MSDRIASEKLRSKLMSADEAAQFVNHGDKVGFSGFTGAGYPKALPTAIANRAKEAHGAGNDYAIDLFTGASTAPDCDGVLAEADAIRWRMPYASDPIMRNKINSGSMGYSDIHLSHSGQQVEEGFFGQLNVAVIEITRITEEGYIIPSSSVGNNVEWLNAAEKVILEVNSWQSEDLEGMHDIWSVPALPNRIAVPINKPGDRIGKTYIEFDTDKVVAVVETNTADRNAPFKPVDDISKKIAGNFLDFLESEVAAGRLSYDGYIMQSGVGNVPNAVMAGLLESKFENIQAYTEVIQDGMVDLIDAGKMTVASATSFSLSPEYAEKMNNEAKRYRESIILRPQQISNHPEVIRRVGLIATNGLIEADIYGNVNSTNVSGSRVMNGIGGSGDFTRNGYISSFITPSEAKGGAISAIVPFASHIDHTEHDVMVVISEYGYADLRGLAPRERVAKMIGLAHPDYRPLLEEYYARATSGDNKYMQTPHDLATAFDFHINLAKNGSMKA”: the “soluble on expression in E. coli” value was “soluble”. The entry for “MSDSDLKEIEKNAENIKLEPAEDEVNEEDQNEITIPELPEGRVLELRLLSNWGDSHYIGLNSVEIFTSTGERAVIDKIATNVTEYTGSLESLIVQRVHCKDAEKMWCAKTTEEKIVLTLELKETCKLALIRFWNYNASRVHAQIGVRYLEMYLDGVGIFRGELECAFSADSEFTPVMGETVLFTTSDNILELIALHDVCLISLPEEPISNSSIEMLKADHLTPYRPSTCEAKDAPSTPVTIVPPPIFRQTGTAYKHDVKTLHIELLSNWGMDGLIGLTGLELVDEHSQLIDESQYTVTTSDGNSDLSKKLFNGRNLTRDPHDMWLVDFDSKNFTTISITFHDNVALKAISVWNYNASFELSYAGVKAAKIYINGKLIKNVLLRKATGFVYFDYVQDVVLDPNNTERDFVPKGISQSIGGFVFQIRLLSTWGDEFYIGLNGIELYNRKGELMKIREHNLAAFPESVNILPNIKNDLRTSNNLITQPNDTDIARNMWLTALLPNRCARVFFVFDVQTYISKIVIYNYRKTPERGVRHISVTVDDLIIFSGEIPSSTATLTGNLEINLMDI” is “not soluble”. Turning to “MSDSTQMEANAAINEIKKRTRKLDQSLQMRFCADQFFIGNHCTKLASGKSIIISQNSKNRICLRFFMAADPLVGYTGRDFGIAFNQIDHISLKDEQQENPAVLICTLNLSSYTKMCKLQTGLKDVVEKPFLYNKSLARNLTFILKPWNDDPDTFVKISYNDEHREYVHSYDYDVAKSLMFKEVQAVWEQSLKEQLQRRHQTGRVYLTSQLSEMTPREWVQFLADQKLSKIVCHNGSIQYARVEDNPHGRKHTAVATNGFDHRGTRVLNSFGKAHASLATQEKSYAKKRKLTEQSLKLIYRNDRSVWLEGSCAKNLKMPKINSEPNMGEFMGWPDMDNAMTHPTSNFENEDVMKSTKQPNDFVSFEQLQAPPPVLQRQNGAIYSTQSVAFTHISGNDGVEDLTEKISHLGEEAYNIDMANALHAFSDNWHYEIHPNTVHNASFEQLHIGDGNSSIGTIGFNPLEPYPQSSFPQSNNWQQAHGDFTFPQVSFPNTQQGSCLPSTPTAALPPTRPVVEKIPPDTQLFTFPPSGSCTTGMDPVVLLVKDIKTLDRKEFLNDSVMAFMLNYIAFMLSSELMKSVHMCNTFLFVNLTRLLPPLCFSKRRPIEPEHIKIVKDNCPRVLRWTRKFDVLAKDYIIIPINEDLHWLVIAVINPSGAIVDMSNEEASRAAPKCYIVFFDPLSGLDPSKKNHMCHCIKIYLAQLYENTKAPGMKFASKNPTIYDEERVVVTRAENTPIQDNFYDCGLYVLHFIEGLFCYPNRPVNVNDFPNFDWSKFFPEANKMCDLMRDKVYNLILQQADKPARSRLAKFERENKCGLSREGALRKARRHSAVNERRTKRHRDYYARHYSLSPPHRNVMNDDPTFMNPRGLAEMPITRLVRRLRIPEDNFPIAY”, the “soluble on expression in E. coli” value is “not soluble”. The entry for “MSDTANTAVEVDEQVIEKKLDDLSIGKKRSPSKDDTSKHRLPAAERIRIWEEEQKAKIVLTAGLQGKVKWYSVLRRYGFISRSDGEKDVFVHQTAISKSDTEKFYLRTLADEEEVLFDLVDGKNGPEAANVTGPAGVNVSGSKYRHQLLSRFRKNRKPKIVVGEDFDSKETEKLVEAPAVAMEKKKQRKQRKNKNRKQKDQKGAGDAADSSATTESLGTSSETASPDSKSCTKIISEEAGLSKIDRCDSALDDAGLGAQLIDAQI” is “soluble”.

“MSDWFQLDKEYMMSTYCRTKIAIERGEGCKLYDVDGKEYLDLFSGVGVNVLGYNHPKIVQTTMDQVTKSLHLPFHFLNPVAIEYAKKLVDCSLKNGKVFFTNSGTEATETTLKLIDKYRAITNEEREGIVVLKNSFHGRTLGALHFTRQESVYQNFPTTSIPVYEVERENIEQLEETIINENPIAILLEPVLGSGGIYPLSREYLHGVQNLCDKYNVILIVDEVQSGMGRTGKLFAYQNFNITPHIIQIGKGAGGGIPLGGIIVGEKLCDVFAPGDHGTTFAHSSMGTALGLTVLNTLLDDGLMQEAYEMSLYLNDKLQEIQKENSYYIEEVRHAGMMFGISLNDTNENVKKLQVELMEKGILVDVTQGNIIRLLPPYIITKEEIDTFITQFIFCIDKVAAVVSA”: the “soluble on expression in E. coli” value is “not soluble”.

For the sequence “MSEAPATEHGQCLCGAVGFTATLGAREFGVCHCSMCRRWSGGAFMAVECTDIAFENEQRLGVYSSSKWGERCFCKNCGSTLVWRSKDGKHFAVSLQAFDKPSSFTFVQQIFTDEKPSSYSFAQTTQNMTGPEFIAMITSAEH”, the “soluble on expression in E. coli” value is reported as “not soluble”. As for “MSEDHHDEEQFDSAESGAAATFPKQCSALRKNEHVMIRGRPCKIVEMSTSKTGKHGHAKVHMVAIDIFTTKKLEDICPSTHNMDVPVVKRREYILMSIEDGFCSLMDPESCELKDDLKMPEGDLGNTIREALEKDEGSVLVQVVAACGEEAILGYKISTKE”, the “soluble on expression in E. coli” value was “not soluble”. With “MSEDIGVTRFREYLRVNTEQPKPDYEACRDFLFKYADELGIERRSVETAPGTYFVIMTIPGSKPDLPSIMLYSHTDVVPTFREYWTHDPYSAFKDEDGNIFARGAQDMKCVGVQYMEALRNWFAKGVKQWTRTIHIVWGPDEEIGHINGMKGFAVTEEFKKLNIDFALDEGIATEDDVYKIFYAERIPWWVKVTLPGHPGHGSKFIEKTAIEKLHKLIASVDEFRNEQKSLLAEHPEWTVGDVTTSNITIINGGVQVNVVPEKFEAYIDIRVTPLQDLDAVLARVDQWAKEAGEGVTYEFMQFSNFKLISPNTREDPFWAAIDDALQKEGCKYKKEIFIGATDSRFVRAQGIRAIGFSPIINTPSLLHDHNEFLNEKTFLRGVEIYETLINKLANVN”, the “soluble on expression in E. coli” value is listed as “not soluble”.

With “MSEEKPLKVSYSKQFVRDLTDLAKRSPNVLIGSKYITAIHCLLNRLPLPENYQDHALVGEWKGYRDCHIQGDLVLIYQYVIQDEFDELKFSRLNIHSQTALK”, the “soluble on expression in E. coli” value is recorded as “not soluble”. As for “MSEELPNITTSEKKSFLQSLFSCLFQSEPKNREDLVEVIRDSLENELIDNDTKEMMEGVMEISELRVRDIMIPRPQIVYIDANLPLEACVDLIIESAHSRFPVILDDGKDNIQGMLLAKDLLKYLRSDSAPFDMQKMLRPAVIVPESKRVDRMLKEFRSERFHMAIVVDEFGAVSGLVTIEDILEQIVGDIEDEFDEEEIEPIRQLSRHTYAVSALTDIEKFNAVFATDFVDEEVDTIGGLVMQAFSHLPQRGEQVNLHGIDFKVTSADSRRLIQLRVTVSDEQLEQMERITDLEE”, the “soluble on expression in E. coli” value is reported as “not soluble”. Regarding “MSEESQAFQRQLTALIGYDVTDVSNVHDDELEFTRRGLVTPRMAEVASRDPKLYAMHPWVTSKPLPEYLWKKIANNCIFIVIHRSTTSQTIKVSPDDTPGAILQSFFTKMAKKKSLMDIPESQSEQDFVLRVCGRDEYLVGETPIKNFQWVRHCLKNGEEIHVVLDTPPDPALDEVRKEEWPLVDDCTGVTGYHEQLTIHGKDHESVFTVSLWDCDRKFRVKIRGIDIPVLPRNTDLTVFVEANIQHGQQVLCQRRTSPKPFTEEVLWNVWLEFSIKIKDLPKGALLNLQIYCGKAPALSSKASAESPSSESKGKVQLLYYVNLLLIDHRFLLRRGEYVLHMWQISGKGEDQGSFNADKLTSATNPDKENSMSISILLDNYCHPIALPKHQPTPDPEGDRVRAEMPNQLRKQLEAIIATDPLNPLTAEDKELLWHFRYESLKHPKAYPKLFSSVKWGQQEIVAKTYQLLARREVWDQSALDVGLTMQLLDCNFSDENVRAIAVQKLESLEDDDVLHYLLQLVQAVKFEPYHDSALARFLLKRGLRNKRIGHFLFWFLRSEIAQSRHYQQRFAVILEAYLRGCGTAMLHDFTQQVQVIEMLQKVTLDIKSLSAEKYDVSSQVISQLKQKLENLQNSQLPESFRVPYDPGLKAGALAIEKCKVMASKKKPLWLEFKCADPTALSNETIGIIFKHGDDLRQDMLILQILRIMESIWETESLDLCLLPYGCISTGDKIGMIEIVKDATTIAKIQQSTVGNTGAFKDEVLNHWLKEKSPTEEKFQAAVERFVYSCAGYCVATFVLGIGDRHNDNIMITETGNLFHIDFGHILGNYKSFLGINKERVPFVLTPDFLFVMGTSGKKTSPHFQKFQDICVKAYLALRHHTNLLIILFSMMLMTGMPQLTSKEDIEYIRDALTVGKNEEDAKKYFLDQIEVCRDKGWTVQFNWFLHLVLGIKQGEKHSAHHHHHH”, the “soluble on expression in E. coli” value is given as “soluble”.

“MSEFLTHPFEPFFDKDSKILILGSFPSIKSRQDGFYYQHPRNRFWPILETLFNAKLENITEQQAFLRKKHIALWDVLQSCKIKNSDDKTISYAKANDLNLILSQTKIQAIFTTGQSAYRFFVKFHPRLEAIALPSTSPANLNFSFEQLLQNYEIIKKFTKLEHHHHHH”: the “soluble on expression in E. coli” value was “soluble”.
